Experimental data as given in CN115894704A (UNIV SICHUAN, dated 2023).

T1: EpCAM-camFc(人EpCAM与羊驼Fc重组蛋白) (human, UniProt P16422 24-265)
T1 construct: Recombinant fusion of human EpCAM and alpaca Fc; not shown: alpaca Fc
T1 sequence (looked up): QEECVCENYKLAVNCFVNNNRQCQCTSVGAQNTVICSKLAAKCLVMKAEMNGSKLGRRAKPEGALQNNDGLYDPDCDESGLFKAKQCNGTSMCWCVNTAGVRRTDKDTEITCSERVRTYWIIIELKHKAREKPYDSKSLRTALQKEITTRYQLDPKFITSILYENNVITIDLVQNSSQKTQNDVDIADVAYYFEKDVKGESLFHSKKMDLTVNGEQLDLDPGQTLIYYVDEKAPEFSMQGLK

B1: Anti-EpCAM-VHH SEQ ID NO 4 (phage-displayed) (VHH)
VHH: QVQLVESGGGSVQAGGSLRLSCVATGFTISRKCMGWFREAPGKKREVIATINTGSSSPYYADGVKGRFTISQDNAKNTVYLQMNSLKPEDTAMYYCAATKGVVVGTGYCGGPYVERPNSAYWGQGTQVTVSS
notes: fusion to the phage coat protein is not described
B2: Anti-EpCAM-VHH SEQ ID NO 1 (phage-displayed) (VHH)
VHH: DVQLVESGGGSVQSGGSLRLSCAASGYTYRRYYMGWFRQAPGEQREGVAVINNDGRTNYADSVKGRFRISRDNAENTLHLEMNSLKPEDTAMYYCAATGNILPPMTAVPPLGRQWYPYWGRGTLVTVSS
notes: as for B1
B3: Anti-EpCAM-VHH SEQ ID NO 3 (phage-displayed) (VHH)
VHH: QVQLVESGGGSVQAGGSLRLSCVVSAYSAYTYKTMCMGWFRQAPGKEREGVAAIYRGGLNTYYADSVKGRFIISRDNAESTMYLQMNSLKPEDTAMYYCAADWLRGDDCNIGANFDYWGQGTQVTVSS
notes: as for B1
B4: Anti-EpCAM-VHH SEQ ID NO 9 (phage-displayed) (VHH)
VHH: HVQLVESGGGSVQSGGSLRLSCAVSGYAYSSLAWFRQAPGKEREGVAALLTAIGGPTRTTYADSVKGRLAISQDHAKNTLYLQMSSLKPEDTAMYYCAAGRPAGTPRWLLLAPRDYNYWGQGTQVTVSS
notes: as for B1
B5: Anti-EpCAM-VHH SEQ ID NO 2 (phage-displayed) (VHH)
VHH: HVQLVESGGGSVQSGGSLRLSCAASGYAVKNCMGWFRQAPGKEREGVAVINRNGITTYADSVKGRFTISQDKDKNTLDLQMNSLKPEDTAMYYCAATPTLLTIPARFLCDVRNPSGFTDWGQGTLVTVSS
notes: as for B1
B6: Anti-EpCAM-VHH SEQ ID NO 8 (phage-displayed) (VHH)
VHH: EVQLVESGGDSVQAGGSLRLSCAASGYSPGSYCMGWFRQAPGKERERVAIIESRGTVTYVDSVKGRFTISKDNAKNTLYLQMNSLKPEDTAMYYCAASRPWSGVRCLHDKYDYWGQGTQVTVSS
notes: as for B1
B7: Anti-EpCAM-VHH SEQ ID NO 6 (phage-displayed) (VHH)
VHH: DVQLVESGGGSAQAGGSLRLSCAASGPTSSLRTMGWFRQASGKERERVAVIWDGRTTDYDDSVQDRFTISQDNAKSTVYLQMNTLKPEDTAMYYCAASPRIVPFASTYFQHWGQGTQVTVSS
notes: as for B1
B8: Anti-EpCAM-VHH SEQ ID NO 7 (phage-displayed) (VHH)
VHH: HVQLVESGGGSVQAGGSLKLSCAASGSIFSGSIFSRCGMRWYRQAPGKERELVSSTSKDGFTSYTDSVKGRFTISQDNANNTLYLQMSSLKTEDTAVYSCAAICAVGGYSLSTYTYWGQGTQVTVSS
notes: as for B1
B9: Anti-EpCAM-VHH SEQ ID NO 5 (phage-displayed) (VHH)
VHH: DVQLVESGGGSVQAGRSLRLSCELSDYTWSTVCMGWFRQAPGKEREGVAVIYTRSGGTTYADSAKGRFTISRDNAKDTLYLQMDSLKPEDTAMYYCAAGPLYDGRCTYRSPAFHYWGQGTQVTVSS
notes: as for B1

Target: T1, EpCAM-camFc(人EpCAM与羊驼Fc重组蛋白)
Assay: phage ELISA, EpCAM-camFc coated, anti-M13 HRP

Row | Binder | binding result
1 | B1 | binds
2 | B2 | binds
3 | B3 | binds
4 | B4 | binds
5 | B5 | binds
6 | B6 | binds
7 | B7 | binds
8 | B8 | binds
9 | B9 | binds
